Test results as given in patent US20160002326A1 (AbbVie / Abbott, published 2016).

T1: mouse TNF (mouse, UniProt P06804 80-235)
T1 construct: also called murine TNF; rodent TNF (mouse)
T1 sequence (looked up): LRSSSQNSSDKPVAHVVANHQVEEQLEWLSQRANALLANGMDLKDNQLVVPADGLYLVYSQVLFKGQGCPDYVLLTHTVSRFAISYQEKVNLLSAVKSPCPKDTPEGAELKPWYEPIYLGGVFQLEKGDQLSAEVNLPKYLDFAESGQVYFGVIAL

T2: mouse IL-17 (mouse, UniProt Q62386 26-158, limits assumed)
T2 construct: also called mouse IL-17A; rodent IL-17 (mouse)
T2 sequence (looked up): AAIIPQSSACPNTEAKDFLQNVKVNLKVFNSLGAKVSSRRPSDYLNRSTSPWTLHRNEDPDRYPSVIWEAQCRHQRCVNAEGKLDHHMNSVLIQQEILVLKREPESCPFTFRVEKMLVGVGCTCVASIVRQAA

B1: anti-murine TNF antibody 8C11 (antibody, mouse IgG2c, V domains shown)
VH: EFQLQQSGPELVKPGASVRISCKASGYSFTDYNMNWVKQSNGKSLEWVGVINPNYGSSTYNQKFKGKATLTVDQSSSTAYMQLNSLTSEDSAVYYCARKWGQLGRGFFDVWGTGTTVTVSS
VL: QIVLSQSPAILSASPGEKVTMTCRASSSVSYMHWFQQKPGSSPKPWIYATSNLASGVPARFSGSGSGTSYSLTISRVEAEDAATYYCQQWSSSPLTFGAGTKLELKR
notes: also called 8C11 anti-TNF Ab; Anti-TNF
B2: 8C11/10F7M11 anti-TNF/IL-17 DVD-Ig protein (bispecific antibody, human IgG1, kappa, L234A L235A)
heavy: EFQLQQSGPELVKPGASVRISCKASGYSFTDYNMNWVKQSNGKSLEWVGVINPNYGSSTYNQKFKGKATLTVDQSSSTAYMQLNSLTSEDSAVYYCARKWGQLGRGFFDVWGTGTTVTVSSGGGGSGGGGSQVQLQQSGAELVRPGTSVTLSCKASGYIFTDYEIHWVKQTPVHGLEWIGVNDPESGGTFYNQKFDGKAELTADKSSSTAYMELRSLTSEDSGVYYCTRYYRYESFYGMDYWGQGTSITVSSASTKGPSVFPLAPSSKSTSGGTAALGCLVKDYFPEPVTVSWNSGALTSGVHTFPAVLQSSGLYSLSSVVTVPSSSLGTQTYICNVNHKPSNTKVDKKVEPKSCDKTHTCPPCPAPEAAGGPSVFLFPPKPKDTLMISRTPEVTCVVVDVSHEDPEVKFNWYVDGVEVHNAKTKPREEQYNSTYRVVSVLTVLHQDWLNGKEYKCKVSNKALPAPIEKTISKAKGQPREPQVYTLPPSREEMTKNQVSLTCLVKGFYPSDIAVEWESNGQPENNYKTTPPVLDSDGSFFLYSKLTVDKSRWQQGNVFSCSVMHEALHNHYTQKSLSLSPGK
light: QIVLSQSPAILSASPGEKVTMTCRASSSVSYMHWFQQKPGSSPKPWIYATSNLASGVPARFSGSGSGTSYSLTISRVEAEDAATYYCQQWSSSPLTFGAGTKLELKRGGSGGGGSGQIVLTQSPAIMSASPGEKVTMTCSASSSISYIYWFQQKPGTSPKRWIYATFELASGVPARFSGSGSGTSYSLTISSMEAEDAATYYCHQRSSYPWTFGGGSKLEIKRTVAAPSVFIFPPSDEQLKSGTASVVCLLNNFYPREAKVQWKVDNALQSGNSQESVTEQDSKDSTYSLSSTLTLSKADYEKHKVYACEVTHQGLSSPVTKSFNRGEC
notes: also called 8C11/10F7 DVD-Ig protein; anti-mouse TNF/IL-17 DVD-Ig

Key:
[1] = target: T1, mouse TNF; test: assay not stated (Table 5, 'Source And Binding Information')
[2] = target: T2, mouse IL-17; test: as above

Binder	IC50 [1] [nM]	IC50 [2] [nM]
B1	2	
B2	2	0.13
